Data on two molecules can be found in paper PMC6134688, “Identification of a novel site of interaction between ataxin-3 and the amyloid aggregation inhibitor polyglutamine binding peptide 1” (European Journal of Mass Spectrometry (Chichester, England), 2017).

T1: MBP-183-221, maltose binding protein linked to residues 183-221 of ataxin-3 (UniProt P54252 183-221)
T1 construct: printed mass 49,207.6 Da; MBP drawn from PDB 1LLS; not shown: MBP, N-terminal, kept
T1 chain (looked up): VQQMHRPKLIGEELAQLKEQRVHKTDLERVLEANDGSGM

B1: polyQ binding peptide 1 (peptide)
peptide: Ac-SNWKWWPGIFD
notes: printed mass 1477.6 Da; also called QBP1; source: synthetic peptide, bought: Bio-Synthesis Inc
B2: JD+, the Josephin domain plus residues 183-221 (ataxin-3 residues 1-221) (domain or fragment, UniProt P54252 1-221, looked up)
chain: MESIFHEKQEGSLCAQHCLNNLLQGEYFSPVELSSIAHQLDEEERMRMAEGGVTSEDYRTFLQQPSGNMDDSGFFSIQVISNALKVWGLELILFNSPEYQRLRIDPINERSFICNYKEHWFTVRKLGKQWFNLNSLLTGPELISDTYLALFLAQLQQEGYSIFVVKGDLPDCEADQLLQMIRVQQMHRPKLIGEELAQLKEQRVHKTDLERVLEANDGSGM
notes: ataxin-3 residues 1-221, made by a stop codon in the gene encoding ataxin-3 14Q; printed mass 27,704.4 Da; also called ataxin-3 1-221

The target of series [1] is T2, JDU1, the Josephin domain plus the first UIM (ataxin-3 residues 1-241) (UniProt P54252 1-241).
T2 construct: ataxin-3 residues 1-241, made by a stop codon in the gene encoding ataxin-3 14Q; printed mass 30,046.7 Da
Nature of the series: native MS; nanoESI-MS; 10 μM protein and 50 μM QBP1 (five-fold molar excess) in 250 mM ammonium hydrogen carbonate, 1 mM dithiothreitol, pH 7.8. The following applies: both partners purified.

The target in series [2] is B2. Described as above. Conditions: both partners purified.
For series [3], the target named is T1, MBP-183-221, maltose binding protein …. Nature of the series: native MS; nanoESI-MS; equimolar QBP1 (for the TEV-cleaved MBP fusion the ratio is not told). Conditions: both partners purified.
In series [4] the target is ataxin-3 14Q (UniProt P54252). Kind of series: 1H T1rho NMR (signal of the peptide); 50 μM QBP1 and 10 μM protein in 250 mM ammonium hydrogen carbonate, 10% (v/v) D2O; 100 ms spin-lock; methyl region 0.45-0.75 ppm integrated.
The target of series [5] is ataxin-3 78Q (UniProt P54252). The description is as above.
The target of series [6] is ataxin-3 14Q (UniProt P54252). Nature of the series: native MS; nanoESI-MS; 16-fold excess of QBP1 over ataxin-3 14Q (Supplementary Figure 1).
Series [7] has as its target ataxin-3 14Q (UniProt P54252). Kind of series: native MS; nanoESI-MS; 10 μM protein and 50 μM QBP1 (five-fold molar excess) in 250 mM ammonium hydrogen carbonate, 1 mM dithiothreitol, pH 7.8.
For series [8], the target named is ataxin-3 78Q (UniProt P54252). Described as above.
Series [9] deals with the molecule itself. The description is as above.

Where no end group is shown, it is not given here.

One may read the stoichiometry N as a count of units in the complex or per binding partner. Regarding B1, the “stoichiometry N” value in [1], in series [2], in series [3], in [6], in series [7] and in [8] was 1 each time. In addition, the loss of QBP1 signal in T1rho NMR in series [4] turned out to be 22%; in series [5], 24%.

Turning to B2, the “stoichiometry N” value in series [9] was found to be 2.
